Experimental data: publication PMC7745056

Target: T1, IiWRKY34 (Isatis indigotica, UniProt A0A6G8R7I5 1-302)
T1 sequence: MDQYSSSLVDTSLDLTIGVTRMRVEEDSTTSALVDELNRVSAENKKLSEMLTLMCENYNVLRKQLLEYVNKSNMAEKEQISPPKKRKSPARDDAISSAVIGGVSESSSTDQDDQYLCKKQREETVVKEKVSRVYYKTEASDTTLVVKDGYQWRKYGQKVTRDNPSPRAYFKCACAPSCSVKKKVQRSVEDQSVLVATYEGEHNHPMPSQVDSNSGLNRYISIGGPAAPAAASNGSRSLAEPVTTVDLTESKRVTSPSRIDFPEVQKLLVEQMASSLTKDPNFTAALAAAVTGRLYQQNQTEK
Assay: EMSA

B1: Ii4CL3 promoter mutated W-box probe (Ii4CL3mpF/mpR) (dsDNA)
DNA 1: TCCGATTTTTTTCATAATTAATTTGAAATGTGCGGTTGATTTTTTTCCAA
DNA 2: TTGGAAAAAAATCAACCGCACATTTCAAATTAATTATGAAAAAAATCGGA
- binding result: no binding
